Source: US20190025321A1 (WHITEHEAD INSTITUTE FOR BIOMEDICAL RESEARCH, published 2019)
Values belong to the binder of their own block, whether it stands above or below them.

B5: HA-metap2 (other, UniProt P50579 1-478, looked up, not shown: small tags and cut ends)
chain: MAGVEEVAASGSHLNGDLDPDDREEGAASTAEEAAKKKRRKKKKSKGPSAAGEQEPDKESGASVDEVARQLERSALEDKERDEDDEDGDGDGDGATGKKKKKKKKKRGPKVQTDPPSVPICDLYPNGVFPKGQECEYPPTQDGRTAAWRTTSEEKKALDQASEEIWNDFREAAEAHRQVRKYVMSWIKPGMTMIEICEKLEDCSRKLIKENGLNAGLAFPTGCSLNNCAAHYTPNAGDTTVLQYDDICKIDFGTHISGRIIDCAFTVTFNPKYDTLLKAVKDATNTGIKCAGIDVRLCDVGEAIQEVMESYEVEIDGKTYQVKPIRNLNGHSIGQYRIHAGKTVPIVKGGEATRMEEGEVYAIETFGSTGKGVVHDDMECSHYMKNFDVGHVPIRLPRTKHLLNVINENFGTLAFCRRWLDRLGESKYLMALKNLCDLGIVDPYPPLCDIKGSYTAQFEHTILLRPTCKEVVSRGDDY
notes: Negative control of the co-immunoprecipitations; also called metap2 control protein

Legend:
HA-metap2 [1] = target: B5; experiment: co-immunoprecipitation, anti-HA IP from transfected HEK-293T cells, immunoblot for endogenous CASTOR1
[2] = target: T1, endogenous GATOR2 complex (Seh1L, WDR59, WDR24, Sec13 and Mios) (human, UniProt Q9NXC5 1-875; Q96S15 1-790; Q6PJI9 1-974; P55735 2-322; Q96EE3 1-360, limits assumed); experiment: co-immunoprecipitation, anti-FLAG IP of GATOR2 from a HEK-293T line with endogenously FLAG-tagged WDR59, immunoblot for endogenous CASTOR1
T1 construct: Five-subunit complex; In most blots its presence is read from the mios band; also called detected by mios
Description: (§1) FIG. 3A, FIG. 3B, FIG. 3C, FIG. 3D, FIG. 3E and FIG. 3F depict arginine regulates the interaction of GATOR2 with CASTOR1-homodimers and CASTOR1-CASTOR2 heterodimers in cells and in vitro. […] HEK-293T cells cotransfected with the indicated cDNAs were deprived of amino acids for 50 min or starved and restimulated with amino acids for 10 min. Anti-HA immunoprecipitates and cell lysates were analyzed by immunoblotting for levels of the indicated proteins. […] A HEK-293T cell line expressing endogenously FLAG-tagged WDR59 was treated as in (3A) and anti-FLAG immunoprecipitates were analyzed by immunoblotting for the indicated proteins. […] Cells were deprived of leucine, arginine, or all amino acids for 50 min, and restimulated for 10 min with the respective amino acids where indicated. Anti-HA immunoprecipitates were prepared and analyzed as in (3A). […] Anti-HA immunoprecipitates were prepared from HEK-293T cells expressing the indicated cDNAs and deprived of amino acids for 50 min. Indicated amino acids were added directly to the immunoprecipitates, which after re-washing, were analyzed as in (3A). […] The experiment was performed and analyzed as in (3D), except using the indicated concentrations of arginine. […] Anti-HA immunoprecipitates were prepared and analyzed as in (3A).

[3] = target: complete GATOR2 complex, recombinant (WDR24-FLAG, WDR59, mios, sec13, seh1L co-expressed) (UniProt Q96S15 1-790; Q6PJI9 1-974; Q9NXC5 1-875; P55735 1-322; Q96EE3 1-360, limits assumed); experiment: co-immunoprecipitation, anti-FLAG IP (bait WDR24-FLAG) from co-transfected HEK-293T cells, immunoblot for HA-tagged CASTOR1
From the text: FIG. 7A, FIG. 7B, FIG. 7C, FIG. 7D, FIG. 7E and FIG. 7F depicts CASTOR1 and CASTOR2 homologs are present in vertebrates and invertebrates, and the CASTORs and Sestrins bind to distinct sites on GATOR2. […] Sequence alignments are colored with respect to sequence identity as in FIG. 1C. The first and second ACT domains are annotated above the alignment with blue and orange bars, respectively. […] The sequence alignment is annotated as in (7B). FIG. 7E depicts the GATOR2 components WDR24, mios, and seh1L form a minimal complex that is sufficient to co-immunoprecipitate CASTOR1. HEK-293T cells were cotransfected with the indicated cDNAs, and anti-FLAG immunoprecipitates were analyzed as in FIG. 1D.
Where indicated, for transient cotransfection experiments, 2 million HEK-293T cells were plated in 10 cm dishes and transfected 24 hrs later using the polyethylenimine method (Boussif et al., 1995) with the indicated pRK5-based expression vectors: 300 ng HA-metap2, 40 ng CASTOR1-HA, 80 ng CASTOR1-FLAG, 40 ng CASTOR2-HA, 80 ng CASTOR2-FLAG; 100 ng WDR24-FLAG, 100 ng WDR59, 100 ng mios, 150 ng sec13, 150 ng seh1L, 10 ng or 40 ng or 100 ng or 600 ng of myc-Sestrin2 or myc-CASTOR2; 2 ng FLAG-56K1, 15 ng or 60 ng HA-CASTOR2, 75 ng and 175 ng of CASTOR1-HA. The total amount of plasmid DNA in each transfection was normalized to 5 μg with empty pRK5. […]

[4] = target: T1, endogenous GATOR2 complex (Seh1L, …); experiment: co-immunoprecipitation, anti-HA IP from HEK-293T cells deprived 50 min of all amino acids, leucine or arginine, or restimulated 10 min; immunoblot for endogenous mios
Description: as §1

HA-metap2 [5] = target: B5; experiment: co-immunoprecipitation, anti-HA IP from transfected HEK-293T cells
GSK3β = target: T2, GSK3β (human, UniProt P49841); experiment: control immunoprecipitation with an anti-GSK3β antibody from HEK-293T cells starved of or restimulated with amino acids
T2 construct: endogenous, untagged; also called endogenous GSK3β, control immunoprecipitation
Description: FIG. 9A, FIG. 9B, FIG. 9C, FIG. 9D and FIG. 9E depict arginine regulates the interaction of GATOR2 with CASTOR1-containing complexes in cells and in vitro. […] HEK-293T cells cotransfected with the indicated cDNAs and stably expressing the indicated shRNAs were deprived of amino acids in the cell media for 50 min. Anti-HA immunoprecipitates were analyzed by immunoblotting for the indicated proteins. […] HEK-293T cells were starved or restimulated with amino acids, and immunoprecipitates were prepared from these cells using an antibody directed against GSK3β or WDR24. Immunoprecipitates were analyzed by immunoblotting for the indicated proteins. […] Stable expression lines of HEK-293T cells stably expressing the denoted proteins were cotransfected with the indicated cDNAs and treated as in FIG. 3A. Anti-HA immunoprecipitates were analyzed by immunoblotting for the levels of indicated proteins. FIG. 9D depicts deprivation of arginine, but not leucine, is sufficient to promote the association of endogenous GATOR2 with recombinant CASTOR1-CASTOR2 heterodimers. HEK-293T cells cotransfected with the indicated cDNAs were treated and analyzed as in FIG. 3C. […] Anti-HA immunoprecipitates were prepared and analyzed as in FIG. 3E.

[6] = target: T1, endogenous GATOR2 complex (Seh1L, …); experiment: co-immunoprecipitation, anti-HA IP from transfected HEK-293T cells starved of all amino acids 50 min, immunoblot for endogenous mios
Description: FIG. 8A depicts validation of the anti-serum used to detect endogenous CASTOR2. Lysates were prepared from HEK-293T lines stably expressing the indicated shRNAs and analyzed by immunoblotting for levels of indicated proteins. FIG. 8B depicts validation of the anti-serum used to detect endogenous CASTOR1. Lysates were prepared from HEK-293T stably lines expressing the indicated shRNAs and analyzed as in (8C). The arrow denotes the band corresponding to endogenous CASTOR1. […] HEK-293T cells were cotransfected with the indicated cDNAs in expression vectors, starved of all amino acids for 50 minutes, and anti-HA immunoprecipitates were analyzed as in FIG. 1D. […] HEK-293T cells were cotransfected with the indicated cDNAs in expression vectors, starved of all amino acids for 50 minutes, and anti-HA immunoprecipitates were analyzed as in FIG. 1D.

T2 sequence (P49841 whole entry): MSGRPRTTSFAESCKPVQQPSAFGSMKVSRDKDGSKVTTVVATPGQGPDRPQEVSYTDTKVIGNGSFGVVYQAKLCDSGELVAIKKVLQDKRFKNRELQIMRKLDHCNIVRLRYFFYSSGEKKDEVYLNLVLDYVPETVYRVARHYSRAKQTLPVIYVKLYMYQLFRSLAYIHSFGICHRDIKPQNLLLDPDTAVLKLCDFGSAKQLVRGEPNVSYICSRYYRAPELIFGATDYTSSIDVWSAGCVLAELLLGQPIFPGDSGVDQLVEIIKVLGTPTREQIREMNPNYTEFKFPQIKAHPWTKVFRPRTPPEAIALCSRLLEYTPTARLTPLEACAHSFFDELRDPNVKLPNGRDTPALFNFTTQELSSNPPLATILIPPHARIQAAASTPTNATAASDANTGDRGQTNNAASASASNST

- binding result (HA-metap2 [1]): no binding
- binding result [2]: binds
B1: endogenous CASTOR1 (other, human, UniProt Q8WTX7 1-329, looked up)
chain: MELHILEHRVRVLSVARPGLWLYTHPLIKLLFLPRRSRCKFFSLTETPEDYTLMVDEEGFKELPPSEFLQVAEATWLVLNVSSHSGAAVQAAGVTKIARSVIAPLAEHHVSVLMLSTYQTDFILVREQDLSVVIHTLAQEFDIYREVGGEPVPVTRDDSSNGFPRTQHGPSPTVHPIQSPQNRFCVLTLDPETLPAIATTLIDVLFYSHSTPKEAASSSPEPSSITFFAFSLIEGYISIVMDAETQKKFPSDLLLTSSSGELWRMVRIGGQPLGFDECGIVAQIAGPLAAADISAYYISTFNFDHALVPEDGIGSVIEVLQRRQEGLAS
notes: Detected with an anti-CASTOR1 antiserum; also called GATSL3

- binding result [3]: binds
B2: recombinant CASTOR1 (Cellular Arginine Sensor for mTORC1; protein encoded by the GATS protein-like 3 gene) (other, human, UniProt Q8WTX7 1-329, looked up, not shown: small tags and cut ends)
chain: MELHILEHRVRVLSVARPGLWLYTHPLIKLLFLPRRSRCKFFSLTETPEDYTLMVDEEGFKELPPSEFLQVAEATWLVLNVSSHSGAAVQAAGVTKIARSVIAPLAEHHVSVLMLSTYQTDFILVREQDLSVVIHTLAQEFDIYREVGGEPVPVTRDDSSNGFPRTQHGPSPTVHPIQSPQNRFCVLTLDPETLPAIATTLIDVLFYSHSTPKEAASSSPEPSSITFFAFSLIEGYISIVMDAETQKKFPSDLLLTSSSGELWRMVRIGGQPLGFDECGIVAQIAGPLAAADISAYYISTFNFDHALVPEDGIGSVIEVLQRRQEGLAS
notes: Expressed from pRK5 vectors in HEK-293T cells; which tag was used depends on the experiment; also called GATSL3; CASTOR1-HA

- binding result [4]: binds
B3: CASTOR1 homodimer (other, human, not shown: small tags and cut ends)
chain 1: MELHILEHRVRVLSVARPGLWLYTHPLIKLLFLPRRSRCKFFSLTETPEDYTLMVDEEGFKELPPSEFLQVAEATWLVLNVSSHSGAAVQAAGVTKIARSVIAPLAEHHVSVLMLSTYQTDFILVREQDLSVVIHTLAQEFDIYREVGGEPVPVTRDDSSNGFPRTQHGPSPTVHPIQSPQNRFCVLTLDPETLPAIATTLIDVLFYSHSTPKEAASSSPEPSSITFFAFSLIEGYISIVMDAETQKKFPSDLLLTSSSGELWRMVRIGGQPLGFDECGIVAQIAGPLAAADISAYYISTFNFDHALVPEDGIGSVIEVLQRRQEGLAS
chain 2: MELHILEHRVRVLSVARPGLWLYTHPLIKLLFLPRRSRCKFFSLTETPEDYTLMVDEEGFKELPPSEFLQVAEATWLVLNVSSHSGAAVQAAGVTKIARSVIAPLAEHHVSVLMLSTYQTDFILVREQDLSVVIHTLAQEFDIYREVGGEPVPVTRDDSSNGFPRTQHGPSPTVHPIQSPQNRFCVLTLDPETLPAIATTLIDVLFYSHSTPKEAASSSPEPSSITFFAFSLIEGYISIVMDAETQKKFPSDLLLTSSSGELWRMVRIGGQPLGFDECGIVAQIAGPLAAADISAYYISTFNFDHALVPEDGIGSVIEVLQRRQEGLAS
notes: also called CASTOR1-HA with CASTOR1-FLAG; CASTOR1-containing dimers

- binding result (HA-metap2 [5]): no binding
- binding result (GSK3β): no binding
B4: endogenous CASTOR2 (other, human, UniProt A6NHX0 1-329, looked up)
chain: MELHILEHRLQVASVAKESIPLFTYGLIKLAFLSSKTRCKFFSLTETPEDYTIIVDEEGFLELPSSEHLSVADATWLALNVVSGGGSFSSSQPIGVTKIAKSVIAPLADQNISVFMLSTYQTDFILVRERDLPFVTHTLSSEFTILRVVNGETVAAENLGITNGFVKPKLVQRPVIHPLSSPSNRFCVTSLDPDTLPAVATLLMDVMFYSNGVKDPMATGDDCGHIRFFSFSLIEGYISLVMDVQTQQRFPSNLLFTSASGELWKMVRIGGQPLGFDECGIVAQISEPLAAADIPAYYISTFKFDHALVPEENINGVISALKVSQAEKH
notes: Detected with an anti-CASTOR2 antiserum; also called GATSL2

Binder: B5
- binding result [6]: no binding
